Assay results from patent publication US20090318350A1, “PAN-HER ANTAGONISTS AND METHODS OF USE” (priority 2006, published 2009).
Residue numbers refer to the chain shown, from its start. Names and notes keep the numbering of the source.

How the values were obtained:
[1] = target: Her-3 (Homo sapiens, UniProt P21860); conditions: particularly for Her-3; cited from earlier work
[2] = tested on: HER5 cells; conditions: cited from earlier work
[3] = tested on: MCF-7 cells; conditions: stated as known; cited from earlier work
[4] = tested on: HER5 cells; experiment: Cell proliferation assay (WST-1), EGF dependent HER5 cells; type: cell-based, mouse; conditions: 48 hour proliferation, phage fusion or purified protein as labelled, read-out: Calculated cell proliferation (EC50)
Protocol: (§1) Phage-fusion particles displaying ligand variants were evaluated for their ability to stimulate cell proliferation in the cell proliferation assay described herein in both an EGF dependent cell line, HER5 and a heregulin dependent cell line, MCF-7.
The HER5 cell line, a murine fibroblast line (derived from the NR-6 line; mouse fibroblast cells that overexpress human EGFR) that has been stably transfected to express the human EGF receptor was provided by Dr. M. C. Hung (MD Anderson Cancer Center).
Stock cultures of HER5 were propagated in D-MEM/F12 medium containing 10% fetal bovine serum, 100 units/ml of penicillin and 100 ug/ml of streptomycin in a water-jacketed incubator at 37° C. in a humidified 5% CO2 atmosphere.
For HER5 proliferation assays, the cells were changed into DMEM/F12 without serum for 24 hours. Cells were then trypsinized and suspended at 1E5 cells/ml. Serial dilutions of EGF (PeproTech, Rocky Hill, N.J.), and HER ligand polypeptide variants were prepared in serum-free DMEM/F12 at 2-fold the final concentration and plated into the wells of 96-well plates. […] Cell proliferation was determined by addition of 10 ul/well of WST-1 Cell Proliferation Reagent (Roche Applied Sciences, Indianapolis, Ind.) for the last three hours of the proliferation period. […] The amount of formazan was measured at 450 nm using a microplate reader (Dynex Technologies) with MRX Revelation software.

[5] = tested on: MCF-7 cells; experiment: Cell proliferation assay (WST-1), heregulin dependent MCF-7 cells; type: cell-based, human; conditions: 72 hours, phage fusion or purified protein as labelled, read-out: Calculated cell proliferation (EC50)
Protocol: as §1
MCF-7 cells (human breast cancer cell lines that express HER2 and HER3) were obtained from the American Type Culture Collection (ATCC). Stock cultures of MCF-7 were maintained in Eagle's MEM supplemented with 1% ITS-X (Invitrogen) and 10% fetal bovine serum.
For proliferation assays, MCF-7 cells were transferred to serum-free medium (SFM) for 24 hours and then trypsinized and suspended at 10^5 cells/mL in SFM. Fifty microliters of cell suspension (5000 cells) were plated per well in 96 well microtiter plates. Serial dilutions of HER ligands or mutant proteins were prepared at twice the final concentration in SFM and 50 ul was added to wells, bringing the final volume to 100 ul at the desired final concentration. Plates were incubated for 72 hours at 37 C in a humidified 5% CO2 atmosphere. Cell proliferation was determined by addition of 10 ul/well of WST-1 Cell Proliferation Reagent (Roche Applied Sciences, Indianapolis, Ind.) for the last three hours of the proliferation period.

Chain of Her-3 (P21860 20-1342): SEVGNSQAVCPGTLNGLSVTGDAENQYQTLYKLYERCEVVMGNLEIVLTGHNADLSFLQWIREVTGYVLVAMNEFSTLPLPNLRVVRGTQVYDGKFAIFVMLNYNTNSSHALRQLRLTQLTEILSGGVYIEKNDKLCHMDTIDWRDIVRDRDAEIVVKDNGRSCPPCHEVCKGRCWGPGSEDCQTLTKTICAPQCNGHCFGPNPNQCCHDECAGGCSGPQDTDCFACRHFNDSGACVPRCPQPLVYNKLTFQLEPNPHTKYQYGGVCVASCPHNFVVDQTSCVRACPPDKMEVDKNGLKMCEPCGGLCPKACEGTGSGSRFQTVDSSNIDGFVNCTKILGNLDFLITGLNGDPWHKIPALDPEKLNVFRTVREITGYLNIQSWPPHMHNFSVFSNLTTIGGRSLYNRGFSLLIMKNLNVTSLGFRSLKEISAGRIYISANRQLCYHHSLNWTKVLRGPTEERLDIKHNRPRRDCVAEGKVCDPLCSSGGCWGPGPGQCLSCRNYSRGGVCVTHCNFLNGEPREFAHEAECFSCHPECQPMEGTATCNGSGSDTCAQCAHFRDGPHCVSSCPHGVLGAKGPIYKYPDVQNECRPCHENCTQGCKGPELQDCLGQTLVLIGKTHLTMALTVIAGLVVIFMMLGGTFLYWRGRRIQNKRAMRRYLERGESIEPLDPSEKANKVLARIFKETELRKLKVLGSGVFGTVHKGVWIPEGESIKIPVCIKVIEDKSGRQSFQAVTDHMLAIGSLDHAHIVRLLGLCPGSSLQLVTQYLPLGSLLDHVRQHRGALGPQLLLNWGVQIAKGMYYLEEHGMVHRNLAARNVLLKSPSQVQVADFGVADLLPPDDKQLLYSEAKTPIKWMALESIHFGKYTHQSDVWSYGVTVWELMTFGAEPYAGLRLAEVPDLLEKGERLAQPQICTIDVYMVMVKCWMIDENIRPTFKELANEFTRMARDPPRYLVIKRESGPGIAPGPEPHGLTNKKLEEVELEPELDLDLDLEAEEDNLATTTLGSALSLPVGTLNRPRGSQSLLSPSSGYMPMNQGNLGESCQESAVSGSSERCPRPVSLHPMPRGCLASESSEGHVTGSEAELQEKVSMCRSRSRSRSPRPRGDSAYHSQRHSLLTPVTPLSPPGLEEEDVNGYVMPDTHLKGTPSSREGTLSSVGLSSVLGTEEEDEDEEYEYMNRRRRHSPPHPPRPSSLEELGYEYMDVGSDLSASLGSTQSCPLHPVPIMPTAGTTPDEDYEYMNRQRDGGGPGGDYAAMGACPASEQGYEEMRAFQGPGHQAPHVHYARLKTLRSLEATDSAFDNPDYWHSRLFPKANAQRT

B1: EGFwrs: EGF variant, residues 2 and 3 replaced with W and R, N-terminus NWRSE (protein)
chain: HHHHHHIEGRNWRSECPLSHDGYCLHDGVCMYIEALDKYACNCWGYIGERCQYRDLKWWELR
[1]
  binding affinity: high binding affinity

B2: EGF (purified protein): human epidermal growth factor, 53 amino acid cytokine (PeproTech) (protein)
chain: B1 chain with W12S, R13D
[2]; stated as known
  stimulation of HER5 cells: can be stimulated
[3]
  stimulation of MCF-7 cells: not
[4]
  EC50: 1.15 nM

B3: Heregulin (purified protein): heregulin, native HER3/HER4 ligand, purified protein (protein)
chain: SHLVKCAEKEKTFCVNGGECFMVKDLSNPSRYLCKCPNEFTGDRCQNYVMASFYKHLGIEFMEAEELY
[3]
  stimulation of MCF-7 cells: can be stimulated
[5]
  EC50: 6.15 nM

B4: T1ER41D: T1E with arginine of position 41 replaced by aspartate (protein)
chain: VVSHFNDCPLSHDGYCLHDGVCMYIEALDKYACNCVVGYIGEDCQYRDLKWWELRAETVESCLAKPHTENSFTNVWKDDKTLDRYANYEGCLWNATGVVVCTGDETQCYGTWVPIGLAIPENEGGGSEGGGSEGGGSEGGGTKPPEYGDTPIPGYTYINPLDGTYPPGTEQNPANPNPSLEESQPLNTFMFQNNRFRNRQGALTVYTGTVTQGTDPVKTYYQYTPVSSKAMYDAYWNGKFRDCAFHSGFNEDPFVCEYQGQSSDLPQPPVNAGGGSGGGSGGGSEGGGSEGGGSEGGGSEGGGSGGGSGSGDFDYEKMANANKGAMTENADENALQSDAKGKLDSVATDYGAAIDGFIGDVSGLANGNGATGDFAGSNSQMAQVGDGDNSPLMNNFRQYLPSLPQSVECRPFVFSAGKPYEFSIDCDKINLFRGVFAFLLYVATFMYVFSTFANILRNKES
[2]; isolated ligand variants, previously demonstrated
  stimulation of cell proliferation in EGFR-dependent HER5 cells: greatly attenuated activity
